Measured values: PMC5497784 (Cell metabolism, 2017)

Molecular target: the molecule itself
Assay: cross-linking

B1: IRE1α* (cytosolic kinase and RNase domains of human IRE1α, residues 469-977) (domain or fragment, UniProt O75460 469-977, looked up)
chain: HQQQQLQHQQFQKELEKIQLLQQQQQQLPFHPPGDTAQDGELLDTSGPYSESSGTSSPSTSPRASNHSLCSGSSASKAGSSPSLEQDDGDEETSVVIVGKISFCPKDVLGHGAEGTIVYRGMFDNRDVAVKRILPECFSFADREVQLLRESDEHPNVIRYFCTEKDRQFQYIAIELCAATLQEYVEQKDFAHLGLEPITLLQQTTSGLAHLHSLNIVHRDLKPHNILISMPNAHGKIKAMISDFGLCKKLAVGRHSFSRRSGVPGTEGWIAPEMLSEDCKENPTYTVDIFSAGCVFYYVISEGSHPFGKSLQRQANILLGACSLDCLHPEKHEDVIARELIEKMIAMDPQKRPSAKHVLKHPFFWSLEKQLQFFQDVSDRIEKESLDGPIVKQLERGGRAVVKMDWRENITVPLQTDLRKFRTYKGGSVRDLLRAMRNKKHHYRELPAEVRETLGSLPDDFVCYFTSRFPHLLAHTYRAMELCSHERLFQPYYFHEPPEPQPPVTPDAL
  binding result: binds
